The record followed here is patent US20170145113A1 (Genentech, published 2017).

Changes are numbered by the printed parent chain. Names and notes keep the numbering of the source.

Experiment [1] has as its target T1, His-tagged human HtrA1 protease domain (human, UniProt Q92743 161-367).
T1 construct: His-tagged protease domain; also called huHtrA1-PD-His; huHtrA1-PD
Description: phage competition ELISA (Fab on phage, HtrA1 in solution). The procedure:
(§1) MAXISORP™ microliter plates were coated with human HtrA1-PD-His at 2 μg/ml in PBS for 2 h and then blocked with PBST buffer (0.5% BSA and 0.05% TWEEN®20 in PBS) for 1 h at room temperature. Phage purified from culture supernatants were incubated with serially-diluted human or murine HtrA1 in PBST buffer in a tissue-culture microtiter plate for 1 h, after which 80 μl of the mixture was transferred to human HtrA1-coated wells for 15 min to capture unbound phage. The plate was washed with PBT buffer (0.05% TWEEN®20 in PBS), and HRP-conjugated anti-M13 antibody (Amersham Pharmacia Biotech) was added (1:5000 in PBST buffer) for 40 min. The plate was washed with PBT buffer and developed by adding tetramethylbenzidine substrate (Kirkegaard and Perry Laboratories, Gaithersburg, Md.). The absorbance at 450 nm was plotted as a function of target concentration in solution to determine phage IC50.

The target of experiment [2] is T1, His-tagged human HtrA1 protease domain. Description: cell-based or functional assay.
The target is the same in experiment [3]. The experiment is described as follows: BIACORE SPR analysis, Fab format. The procedure: (§2) To determine the binding affinity of selected Fab variants for HtrA1, SPR measurement with a BIACORE™ T200 instrument was performed. Briefly, a series S sensor chip CM5 was activated with 1-EDC and NHS reagents according to the supplier's instructions, and anti-His antibody was coupled to achieve 200-300 response units (RU), then following by blocking un-reacted groups with 1 M ethanolamine. For kinetics measurements, approximately 5 nM of huHtrA1-PD-His was first injected at 10 μl/min flow rate to capture approximately 100 RU at 2 different flow cells (FC), except for FC1 (which served as a reference). Next, 5-fold serial dilutions of Fab in HBS-P buffer (0.01M HEPES pH 7.4, 0.15M NaCl, 0.005% surfactant P20) from low (0.8 nM) to high (50 nM) were injected (flow rate: 30 μl/min). The binding responses on HtrA1 were corrected by subtracting of RU from a blank flow cell. The sensorgram was recorded and subject to reference and buffer subtraction before evaluating by BIACORE® T200 Evaluation Software (version 2.0). Association rates (kₒₙ) and dissociation rates (koff) were calculated using a simple one-to-one Langmuir binding model. The equilibrium dissociation constant (KD) was calculated as the ratio of koff/kₒₙ.

Experiment [4] has the same target. Description: BIACORE SPR, Fab analyte, Human HtrA1-PD (N=2). In general terms: SPR reads the build-up and loss of mass on a sensor chip optically.
Experiment [5] has the same target. The experiment is described as follows: BIACORE T200 SPR; Fab analyte over huHtrA1-PD-His captured by anti-His antibody. The procedure:
as §2

The target in experiment [6] is T2, His-tagged recombinant murine HtrA1 protease domain (murine, UniProt Q9R118 156-367).
T2 construct: His-tagged protease domain; also called muHtrA1-PD-His; muHtrA1-PD
The experiment is described as follows: phage competition ELISA (Fab on phage, HtrA1 in solution). The method, then: as §1
In general terms: In an ELISA, binding on a coated surface is turned into a signal by an enzyme label.

The target of experiment [7] is T1, His-tagged human HtrA1 protease domain. Description: SPR (BIACORE), Fab.
Experiment [8] shares this target. Description: BIACORE SPR, single-cycle kinetics; Fab analyte over captured human HtrA1.
Experiment [9] has as its target T2, His-tagged recombinant murine HtrA1 …. Description: SPR (BIACORE), Fab. From the text: (§3) To address W91 oxidation in HVR-L3, 2 variants (LC-W91Y and LC-W91L) were generated and produced as Fabs for BIACORE™ SPR binding analysis.
(§4) To determine the binding affinity of anti-HtrA1 Fabs by single-cycle kinetics, (SPR) measurement with a BIACORE™ T100 instrument was used. Briefly, a series S sensor chip CM5 was activated with 1-ethyl-3-(3-dimethylamino-propyl)carbodiimide hydrochloride (EDC) and N-hydroxysuccinimide (NHS) reagents according to the supplier's instructions, and streptavidin (Pierce) was coupled to achieve approximately 2500 response units (RU), followed by blocking un-reacted groups with 1 M ethanolamine.
(§5) For kinetics measurements, biotinylated human or murine HtrA1-PD-His was first injected at 10 μl/min flow rate to capture approximately 150 RU at 3 different flow cells (FC), except for FC1 (which served as a reference), and then 5-fold serial dilutions of anti-HtrA1 Fab in HBS-P buffer (0.01M HEPES pH 7.4, 0.15 M NaCl, 0.005% surfactant P20) from low (0.48 nM) to high (300 nM) were injected (flow rate: 30 μl/min) one after the other in the same cycle with no regeneration between injections. The sensorgram was recorded and subject to reference and buffer subtraction before evaluating by BIACORE™ T100 Evaluation Software (version 2.0). Association rates (kₒₙ) and dissociation rates (koff) were calculated using a simple one-to-one Langmuir binding model. The equilibrium dissociation constant (KD) was calculated as the ratio koff/kₒₙ.

Experiment [10] concerns the target T1, His-tagged human HtrA1 protease domain. The experiment is described as follows: SPR (BIACORE), Fab.
Text: as §3, §4, §5
The source holds these as a separate data set.

Experiment [11] concerns the target purified full-length human HtrA1 (human, UniProt Q92743 23-480). Description: cell-based or functional assay.
The target of experiment [12] is purified full-length murine HtrA1 (murine, UniProt Q9R118 23-480). Description: cell-based or functional assay.
Experiment [13] has as its target T3, murine HtrA4 protease domain (murine, UniProt A2RT60 160-371, limits assumed).
T3 construct: domain: PD (protease domain); also called muHtrA4-PD; murine HtrA4-PD
T3 sequence (looked up): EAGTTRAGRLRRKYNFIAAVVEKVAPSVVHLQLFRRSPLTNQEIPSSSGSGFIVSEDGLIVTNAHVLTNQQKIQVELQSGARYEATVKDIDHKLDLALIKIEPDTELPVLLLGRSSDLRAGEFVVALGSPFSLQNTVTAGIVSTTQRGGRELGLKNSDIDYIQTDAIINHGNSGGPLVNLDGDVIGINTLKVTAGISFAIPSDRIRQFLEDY
Description: ELISA, hybridoma clone.

Experiment [14] has as its target T2, His-tagged recombinant murine HtrA1 …. Description: SPR (BIACORE T100), single-cycle kinetics; biotinylated HtrA1-PD-His on streptavidin, Fab injected.
Text: as §4, §5

Experiment [15] addresses T1, His-tagged human HtrA1 protease domain. The experiment is described as above.
Text: as §4, §5

T1 sequence (Q92743 other isoform, or with tags, fused parts or gaps limits assumed): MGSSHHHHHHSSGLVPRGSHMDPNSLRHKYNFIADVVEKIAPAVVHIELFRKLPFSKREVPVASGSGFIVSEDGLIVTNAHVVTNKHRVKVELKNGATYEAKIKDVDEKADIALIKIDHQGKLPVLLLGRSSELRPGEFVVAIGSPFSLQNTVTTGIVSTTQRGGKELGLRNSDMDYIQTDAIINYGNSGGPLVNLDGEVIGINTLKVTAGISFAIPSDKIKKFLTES
Sequence of purified full-length human HtrA1 (Q92743 23-480): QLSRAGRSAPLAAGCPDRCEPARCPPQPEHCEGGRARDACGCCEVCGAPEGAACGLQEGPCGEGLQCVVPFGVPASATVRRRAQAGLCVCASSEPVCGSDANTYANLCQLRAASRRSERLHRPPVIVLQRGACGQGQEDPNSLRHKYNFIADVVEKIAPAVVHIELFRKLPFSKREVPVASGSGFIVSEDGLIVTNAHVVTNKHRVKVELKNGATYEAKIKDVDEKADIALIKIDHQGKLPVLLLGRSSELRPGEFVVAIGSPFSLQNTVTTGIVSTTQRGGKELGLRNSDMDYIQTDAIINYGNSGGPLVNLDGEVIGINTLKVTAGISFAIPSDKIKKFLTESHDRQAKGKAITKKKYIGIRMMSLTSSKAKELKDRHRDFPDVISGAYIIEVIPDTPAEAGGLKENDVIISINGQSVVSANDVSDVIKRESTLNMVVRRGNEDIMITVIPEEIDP

B1: h15H6.v1 HC-A67V variant (Fab, V domains shown)
VH: EVQLVQSGAEVKKPGASVKVSCKASGYTFTDSEMHWVRQAPGQGLEWIGGVDPETDGAAYNQKFKGRVTLTADTSTSTAYLELSSLRSEDTAVYYCTRGYDYDYALDYWGQGTLVTVSS
VL: DIQMTQSPSSLSASVGDRVTITCRASSSVNFIHWYQQKPGKAPKPWISATSNLASGVPSRFSGSGSGTDFTLTISSLQPEDFATYYCQQWSSNPWTFGQGTKVEIK
notes: built as h15H6.v1
In the case of B1, the binding result in experiment [1] is listed as “binds”.

B2: h15H6.v2.APEG Fab (Fab, name in Kabat numbering, V domains shown)
VH: B1 VH with D56E, V68A, L70I, A72R
VL: B1 VL with W46L, N93A
notes: also called h15H6.v3; LC-N94A LC-P95 HC-D55E HC-G56
One may read the Kd as a measure of binding affinity in units of concentration. By koff is commonly meant the rate constant with which the complex falls apart. As a reminder, the kon is a measure of how fast the partners come together. As for B2, in [2], the “IC50 FRET (H2-Opt substrate cleavage)” value was 0.41 nM, the “IC90 FRET (H2-Opt substrate cleavage)” value stood at 2.77 nM and the “Max inhibition (FRET H2-Opt assay)” value stood at 77. Further, in experiment [3], binding was put at a Kd of 0.546 nM, the dissociation rate constant (koff) was determined as 0.000172 s⁻¹ and the kon came to 315000 M⁻¹ s⁻¹. In experiment [4], this molecule had a Kd of 0.6 nM, a koff of 0.00021 s⁻¹ and a kon of 350000 M⁻¹ s⁻¹. In [5], the Kd stood at 0.546 nM, the koff is 0.000172 s⁻¹ and the kon was 315000 M⁻¹ s⁻¹.

B3: h15H6.v1 HC-T93A variant (Fab, V domains shown)
VH: B1 VH with V68A, T97A
VL: B1 VL
notes: built as h15H6.v1
Turning to B3, in experiment [1], the binding result was “binds”.

B4: h15H6.v1 HC-A71R variant (Fab, V domains shown)
VH: B1 VH with V68A, A72R
VL: B1 VL
notes: built as h15H6.v1
With B4, the binding result in experiment [6] and in experiment [1] was “binds” throughout.

B5: h15H6.v2 LC-N94S LC-P95 Fab (Fab, V domains shown)
VH: B1 VH with V68A, L70I, A72R
VL: B1 VL with W46L, N93S
notes: Produced as Fab; also called SP
As for B5, in experiment [7], the “fold reduction in binding affinity against h15H6.v2” value was roughly 2 fold. In [8], this molecule showed a Kd of 0.52 nM, a koff of 0.00025 s⁻¹ and a kon of 480000 M⁻¹ s⁻¹.

B6: h15H6.v2 LC-W91Y Fab (Fab, V domains shown)
VH: B1 VH with V68A, L70I, A72R
VL: B1 VL with W46L, W90Y
notes: Produced as Fab
On to B6, for which, in experiment [9], the dissociation constant (Kd) stood at 7.1 nM, the koff came out at 0.0017 s⁻¹ and the kon came out at 240000 M⁻¹ s⁻¹. In experiment [10], this molecule showed a Kd of 11.2 nM, a koff of 0.0037 s⁻¹ and a kon of 330000 M⁻¹ s⁻¹.

B7: h15H6.v2 LC-N94Q LC-P95 Fab (Fab, V domains shown)
VH: B1 VH with V68A, L70I, A72R
VL: B1 VL with W46L, N93Q
notes: Produced as Fab; also called QP
Consider B7, for which the “fold reduction in binding affinity against h15H6.v2” value in [7] is roughly 2 fold. In [8], binding was characterised by a dissociation constant (Kd) of 0.52 nM, the koff was 0.00029 s⁻¹ and the kon amounted to 560000 M⁻¹ s⁻¹.

B8: h15H6.v1 LC-W47L variant (Fab, V domains shown)
VH: B1 VH with V68A
VL: B1 VL with W46L
notes: its VL equals the VL of h15H6.v2, which carries LC-W47L as its only light chain change
B8: the binding result in experiment [6] and in [1] was “binds” in each case.

B9: h15H6.v2 LC-W91L Fab (Fab, V domains shown)
VH: B1 VH with V68A, L70I, A72R
VL: B1 VL with W46L, W90L
notes: Produced as Fab
For the molecule B9, in experiment [9], the Kd is 7.6 nM, the koff is 0.00091 s⁻¹ and the on-rate constant (kon) amounted to 120000 M⁻¹ s⁻¹. In experiment [10], this molecule came in with a Kd of 10.7 nM, a koff of 0.0016 s⁻¹ and a kon of 150000 M⁻¹ s⁻¹.

B10: h15H6.v1 LC-S49Y variant (Fab, V domains shown)
VH: B1 VH with V68A
VL: B1 VL with S48Y
notes: built as h15H6.v1
On to B10, for which the “fold reduction of binding against h15H6.v1” value in [6] and in experiment [1] was roughly 10 fold each time.

B11: h15H6.v1 HC-L69I variant (Fab, V domains shown)
VH: B1 VH with V68A, L70I
VL: B1 VL
notes: built as h15H6.v1
Take B11: the binding result in experiment [6] and in experiment [1] was “binds” each time.

B12: anti-HtrA1 hybridoma antibody clone 19B12 (antibody, V domains shown)
VH: EVKLVESGGGLVEPGGSLKLACVASGFTFSSYIMSWVRQTPEKRLEWVAYISNGGGTTYYSDTIKGRFTISRDNAKNTLYLQMSTLKSEDTAIYFCARQNFRSDGSSMDYWGQGTAVTVSS
VL: NIVVTQSPASLAVSLGQRATISCRASESVDSYGKSFMHWYQQKPGQPPKLLIYLASKLESGVPARFSGSGSRTDFTLTIDPVEADDAATYYCQQNNEDPYTFGGGTKLEIK
notes: Murine mIgG2a, from hybridoma or recombinant from 293 cells; also called m19B12
Regarding B12, in experiment [11], the “IC50, FRET blocking assay, recombinant antibody from 293 cells” value is roughly 1.2 nM and the “IC50, FRET-based blocking assay (H2-Opt cleavage)” value was found to be 1.4 nM. In addition, the “IC50, FRET-based blocking assay (H2-Opt cleavage)” value in experiment [12] is 1 nM. Also, the binding result in experiment [13] is given as “no binding”.

B13: m19B12 Fab (Fab, V domains shown)
VH: B12 VH
VL: B12 VL
notes: Tested in Fab format
Regarding B13, in experiment [14], the Kd was 6.43 nM, the off-rate constant (koff) is 0.00117 s⁻¹ and the kon was found to be 182000 M⁻¹ s⁻¹. In experiment [15], this molecule returned a Kd of 23.8 nM, a koff of 0.00228 s⁻¹ and a kon of 96000 M⁻¹ s⁻¹.
